T1: colicin E7 DNase (ColE7) (E. coli, UniProt Q47112 444-576)
T1 sequence: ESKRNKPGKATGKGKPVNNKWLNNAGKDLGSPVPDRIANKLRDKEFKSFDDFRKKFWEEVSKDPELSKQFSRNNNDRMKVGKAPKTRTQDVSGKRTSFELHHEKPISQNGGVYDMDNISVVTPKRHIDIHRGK

T2: colicin E9 DNase (ColE9) (E. coli, UniProt P09883 449-582)
T2 sequence: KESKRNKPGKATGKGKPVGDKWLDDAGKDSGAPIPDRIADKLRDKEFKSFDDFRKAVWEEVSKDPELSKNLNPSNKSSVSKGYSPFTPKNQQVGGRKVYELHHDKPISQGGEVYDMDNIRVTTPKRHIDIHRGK

B1: immunity protein 7 (Im7), wild type (other)
chain: MELKNSISDYTEAEFVQLLKEIEKENVAATDDVLDVLLEHFVKITEHPDGTDLIYYPSDNRDDSPEGIVKEIKEWRAANGKPGFKQG
notes: also called wild-type Im7
B2: in vitro evolved Im9 variant #8 (Round 8, high stringency) (designed binder)
chain: MELKHRISDYTEAEFLQLVTTICDANASSEEELDKLITHFEEMTEHPSGSDLIYWPKEGDDDSPSGIVNTVKQWRAANGKSGFKQG
notes: also called Evolved Im variant#8; evolved variant 8

Columns and labels:
colicin E7 DNase (ColE7) [1] = biological target: T1, colicin E7 DNase (ColE7); experiment: not stated (running text of Example 4)
colicin E9 DNase (ColE9) = biological target: T2, colicin E9 DNase (ColE9); experiment: not stated (running text of Example 4)
colicin E7 DNase (ColE7) [2] = biological target: T1, colicin E7 DNase (ColE7); experiment: affinity measurements (Kleanthous laboratory; method not stated)
colicin E7 DNase (ColE7) [3] = biological target: T1, colicin E7 DNase (ColE7); experiment: cell-based or functional assay

Binder	Kd (colicin E7 DNase (ColE7) [1]) [pM]	Kd (colicin E9 DNase (ColE9)) [pM]	Kd (colicin E7 DNase (ColE7) [2]) [pM]	koff (colicin E7 DNase (ColE7) [2]) [s⁻¹]	kon (colicin E7 DNase (ColE7) [2]) [M⁻¹ s⁻¹]	ColE7 concentration at which full protection was observed, in vivo protection assay, 0.05 mM IPTG (colicin E7 DNase (ColE7) [3]) [µM]	ColE7 concentration at which full protection was observed, in vivo protection assay, 1 mM IPTG (colicin E7 DNase (ColE7) [3]) [µM]	ColE7 concentration at which full protection was observed, in vivo protection assay, w/o IPTG (colicin E7 DNase (ColE7) [3]) [µM]
B1	0.00079	56000	≤ 0.01	≤ 1e-05	7.6e+08	> 100	> 100	100
B2			3.85	0.0032	8.3e+08			

— US20080004436A1 (YEDA RESEARCH AND DEVELOPMENT CO LTD AT THE WEIZMANN …, published 2008)
